Laboratory results taken from PMC6881253, “The PCNA interaction motifs revisited: thinking outside the PIP-box” (Cellular and Molecular Life Sciences: CMLS, 2019).

Assays:
Conditions in all cases: both partners purified
[1] = target: T1, N-terminally His6-tagged human PCNA (proliferating cell nuclear antigen) (human, UniProt P12004 1-261); experiment: ITC; ITC200; PCNA injected into the peptide; 10 mM HEPES, 150 mM NaCl, 1 mM EDTA, 1 mM TCEP, pH 7.4; 25 °C; single binding site model; triplicates
T1 construct: Proliferating cell nuclear antigen, human; The tag is used for capture in SPR; source: E. coli BL21(DE3), purified (Ni-NTA, SEC)

[2] = target: T1, N-terminally His6-tagged human PCNA …; experiment: SPR; Biacore T200, single-cycle; His6-PCNA captured by anti-His antibody coupled to a CM5 chip, peptides injected (five twofold dilutions); 10 mM HEPES, 150 mM NaCl, 0.05% P20, pH 7.4; 25 °C; kinetic fit for p21, steady-state fit for the other peptides
[3] = target: T1, N-terminally His6-tagged human PCNA …; experiment: as above; remark: listed apart in the source
[4] = target: T1, N-terminally His6-tagged human PCNA …; experiment: ITC; ITC200; PCNA injected into the peptide; 10 mM HEPES, 150 mM NaCl, 1 mM EDTA, 1 mM TCEP, pH 7.4; 25 °C; single binding site model; triplicates; remark: listed apart in the source

T1 sequence (P12004 whole entry): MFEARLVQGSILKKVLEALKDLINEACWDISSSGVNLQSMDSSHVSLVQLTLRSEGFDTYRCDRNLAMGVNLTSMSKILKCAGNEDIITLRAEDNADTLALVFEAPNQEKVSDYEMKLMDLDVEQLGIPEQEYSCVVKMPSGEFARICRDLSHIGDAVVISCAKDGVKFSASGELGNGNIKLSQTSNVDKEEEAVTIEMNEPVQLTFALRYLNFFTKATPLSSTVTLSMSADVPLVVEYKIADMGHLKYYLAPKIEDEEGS

Kd [3] [nM]	Kd [4] [nM]	Binder	further results
80		Ac-RQTSMTDFYHSKRRL-NH2 (also called initial p21 peptide; p21 peptide; source: peptide, > 95% purity) [p21^143–157 peptide (Ac-RQTSMTDFYHSKRRL-NH2)]	Kd [1]: 67 nM; dH [1]: -55 kcal/mol; koff [2]: 0.14 ± 0.0003 s⁻¹; kon [2]: 1.7e+06 M⁻¹ s⁻¹; stoichiometry N [2]: 3 ligands per PCNA trimer
11000		Ac-MDRWLVKW-NH2 (also called APIM peptide; source: synthetic peptide, > 95% purity) [synthetic peptide harboring an APIM (Ac-MDRWLVKW-NH2)]	
	27	Ac-RKRRQTSMTDFYHSKRRL-NH2 (also called extended peptide; source: peptide, > 95% purity) [p21^140–157 peptide]	
	6.4	RKRRQTSMTDFYHSKRRLIFSKRKP (N-terminally acetylated, C-terminally amidated, called p21^140–163 in the results and the ITC methods; the name p21^140–163 is used elsewhere for the same peptide; also called p21^140–163; source: peptide, > 95% purity) [p21^140–164 peptide (Ac-[residues removed]-NH2)]	

Continued, binder first:

Binder	Kd [3] [nM]	Kd [4] [nM]	further results
Ac-TQGRLDDFFKVTGSL-NH2 (Flap endonuclease 1 (FEN1), human, canonical PIP-box; source: peptide, > 95% purity) [FEN1 peptide (Ac-TQGRLDDFFKVTGSL-NH2)]	45000		
Ac-RKRRATSMTDFYHSKRRL-NH2 (also called p21 peptide variant with Q at the first position mutated to alanine; source: peptide, > 95% purity) [p21^140–157,Q144A (Ac-RKRRATSMTDFYHSKRRL-NH2)]		1300	
Ac-RKRRQGRLDDFFHSKRRL-NH2 (PIP-box motif of flap endonuclease 1 (FEN1), human; also called p21 flanks grafted to Fen1; source: peptide, > 95% purity)		730	
Ac-RQSTLYSFFPKSPAL-NH2 (DNA mismatch repair protein MSH6, human, canonical PIP-box at the very N-terminus; source: peptide, > 95% purity) [MSH6 peptide (Ac-RQSTLYSFFPKSPAL-NH2)]	2900		Kd [2]: 3000 ± 50 nM
